Test results published in paper PMC5862564.
Values joined by “and” are separate entries in the source; they are usually repeats but may differ in a detail not shown here. Equal entries are not always repeated.

Tests used:
HaloTag-FYB (human) = HaloTag-FYB (human) (UniProt O15117); experiment: pull-down + split reporter (BiFC, NanoBiT); HaloTag-fused hook captured from HEK293T lysate on HaloLink resin, 6 washes with PBS 0.1% Tween; luminescence of the co-expressed GPCA pair on the resin; ratio of cells with the HaloTag vector to cells with the pCNeo vector expressing the same protein
[1] = target: FYB fused N-terminally to Gaussia princeps luciferase fragment 1, O15117-3; experiment: GPCA; settings: read off a plot
FYB fused N-terminally to Gaussia princeps luciferase fragment 1, O15117-3, sequence (O15117 other isoform, or with tags, fused parts or gaps): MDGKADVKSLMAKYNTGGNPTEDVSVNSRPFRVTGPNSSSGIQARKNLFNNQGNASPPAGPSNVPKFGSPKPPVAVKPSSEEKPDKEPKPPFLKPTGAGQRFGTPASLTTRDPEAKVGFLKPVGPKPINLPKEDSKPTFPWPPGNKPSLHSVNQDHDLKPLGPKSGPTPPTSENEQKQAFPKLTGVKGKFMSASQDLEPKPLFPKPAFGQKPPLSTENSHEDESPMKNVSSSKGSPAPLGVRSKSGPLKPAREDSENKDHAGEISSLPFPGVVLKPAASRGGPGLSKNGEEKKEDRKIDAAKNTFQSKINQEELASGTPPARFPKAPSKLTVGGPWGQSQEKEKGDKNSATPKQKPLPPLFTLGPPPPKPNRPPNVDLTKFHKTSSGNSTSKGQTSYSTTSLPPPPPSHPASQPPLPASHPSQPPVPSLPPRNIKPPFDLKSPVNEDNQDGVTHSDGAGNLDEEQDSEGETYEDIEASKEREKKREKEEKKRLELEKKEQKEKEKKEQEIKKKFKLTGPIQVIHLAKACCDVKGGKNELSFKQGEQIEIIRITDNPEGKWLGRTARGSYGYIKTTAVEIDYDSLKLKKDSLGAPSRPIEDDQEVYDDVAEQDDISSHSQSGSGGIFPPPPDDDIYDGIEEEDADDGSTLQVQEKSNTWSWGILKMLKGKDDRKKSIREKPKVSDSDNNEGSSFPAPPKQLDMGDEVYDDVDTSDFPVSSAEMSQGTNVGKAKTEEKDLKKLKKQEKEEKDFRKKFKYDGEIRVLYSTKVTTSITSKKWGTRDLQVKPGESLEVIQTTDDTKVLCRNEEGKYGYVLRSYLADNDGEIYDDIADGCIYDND

[2] = target: SKAP2N1 (SKAP2 with Gaussia princeps luciferase fragment 1 at its N-terminal end) (UniProt O75563); experiment: GPCA; settings: read off a plot

luminescence ratio (HaloTag vector to pCNeo control) (HaloTag-FYB (human))	response ([1]; HCK-P249A 0 ng, with A23187, parent: est. 850) [NLR]	response ([1]; HCK-P249A 0 ng, without A23187, parent: est. 280) [NLR]	response ([1]; HCK-P249A 25 ng, with A23187, parent: est. 1000) [NLR]	response ([1]; HCK-P249A 25 ng, without A23187, parent: est. 190) [NLR]	response ([1]; HCK-P249A 50 ng, with A23187, parent: est. 730) [NLR]	response ([1]; HCK-P249A 50 ng, without A23187, parent: est. 540) [NLR]	response ([1]; HCK-P249A 100 ng, with A23187, parent: est. 480) [NLR]	response ([1]; HCK-P249A 100 ng, without A23187, parent: est. 570) [NLR]	response ([1]; with A23187, parent: est. 760) [NLR]	response ([1]; without A23187 (NT), parent: est. 390) [NLR]	response ([2]; with A23187, parent: est. 320) [NLR]	response ([2]; without A23187 (NT), parent: est. 240) [NLR]	Substance
125 and 308 and 160													SKAP2-DIMPH hetero-dimer of hemi-luciferase-fused DIMPH and hemi-luciferase-fused SKAP2 (from UniProt O75563 1-222; O75563 1-359) (complex)
49.1 and 135 and 51.8													SKAP2 homo-dimer of two hemi-luciferase-fused SKAP2 (the pair generating the luciferase signal) (from UniProt O75563 1-359) (complex)
	2000	1000	2500	570	1900	1400	1300	1500	1500	540	4.9	2.2	SKAP2 V24D; F27D; V28E
